B1: ZBTB22 (parent)
chain: HTGLKPYECGVCAKKFMWRDSFMR

Data on 94 variants can be found in the supplement of paper PMC10567573.
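Further: lentivirally expressed fusions sorted by FACS into six bins by GFP to DsRed ratio, PSI derived from sequencing read proportions per bin multiplied by bin number.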

The variants in this data set derive from B1. The data set is described as follows: protein stability index of a GFP-peptide fusion (GPS, HEK-293T) (PSI 1-6); higher = more stable. To be noted: c terminus: a fixed tail appended.
Turning to HTGLKPYECGVCAKVFMWRDSFMR [K15V], the protein stability index stood at 1.77.
As for HTGLKPYECGVCAKMFMWRDSFMR [K15M], the protein stability index was determined as 2.88.
With HTGLKPYECGVCAKSFMWRDSFMR [K15S], the protein stability index is 2.12.
In the case of HTGLKPYECGVCAKLFMWRDSFMR [K15L], the protein stability index came out at 1.52.
Regarding HTGLKPYECGVCAKTFMWRDSFMR [K15T], the protein stability index was found to be 1.61.
The figure for HTGLKPYECGVCAKCFMWRDSFMR [K15C] is 2.1.
The same measure for HTGLKPYECGVCAKDFMWRDSFMR [K15D]: 2.52; for HTGLKPYECGVCAKYFMWRDSFMR [K15Y]: 2.76; for HTGLKPYECGVCAKNFMWRDSFMR [K15N]: 2.26.
The figure for HTGLKPYECGVCAKQFMWRDSFMR [K15Q] is 2.05; for HTGLKPYECGVCAKGFMWRDSFMR [K15G] it is 2.95; for HTGLKPYECGVCAKHFMWRDSFMR [K15H] it is 3.5.
Take HTGLKPYECGVCAKFFMWRDSFMR [K15F]: the protein stability index was 2.
The figure for HTGLKPYECGVCAKRFMWRDSFMR [K15R] is 2.86; for HTGLKPYECGVCAKIFMWRDSFMR [K15I] it is 1.77.
HTGLKPYECGVCAKWFMWRDSFMR [K15W]: the protein stability index is 1.79.
The figure for HTGLKPYETGVCAKKFMWRDSFMR [C9T] is 1.78.
The same measure for HTGLKPYEAGVCAKKFMWRDSFMR [C9A]: 1.46; for HTGLKPYEFGVCAKKFMWRDSFMR [C9F]: 3.19; for HTGLKPYENGVCAKKFMWRDSFMR [C9N]: 2.26.
The figure for HTGLKPYESGVCAKKFMWRDSFMR [C9S] is 1.42; for HTGLKPYEDGVCAKKFMWRDSFMR [C9D] it is 1.85.
With HTGLKPYEIGVCAKKFMWRDSFMR [C9I], the protein stability index came out at 1.98.
The same measure for HTGLKPYEEGVCAKKFMWRDSFMR [C9E]: 1.1.
In the case of HTGLKPYEQGVCAKKFMWRDSFMR [C9Q], the protein stability index came to 1.65.
The same measure for HTGLKPYEMGVCAKKFMWRDSFMR [C9M]: 2.58; for HTGLKPYELGVCAKKFMWRDSFMR [C9L]: 2.75.
The figure for HTGLKPYEGGVCAKKFMWRDSFMR [C9G] is 2.23.
The same measure for HTGLKPYEPGVCAKKFMWRDSFMR [C9P]: 2.65.
As for HTGLKPYERGVCAKKFMWRDSFMR [C9R], the protein stability index was found to be 1.8.
The figure for HTGLKPYEVGVCAKKFMWRDSFMR [C9V] is 2.02.
The same measure for HTGLKPYEWGVCAKKFMWRDSFMR [C9W]: 2.35; for HTGLKPYEKGVCAKKFMWRDSFMR [C9K]: 2.22; for HTGLKPYEHGVCAKKFMWRDSFMR [C9H]: 1.48.
With HTGLKPYECGVCAKKFMWRASFMR [D20A], the protein stability index came out at 2.16.
The figure for HTGLKPYECGVCAKKFMWRFSFMR [D20F] is 2.08.
Consider HTGLKPYECGVCAKKFMWRKSFMR [D20K], for which the protein stability index was found to be 3.45.
The figure for HTGLKPYECGVCAKKFMWRISFMR [D20I] is 2.1.
The figure for HTGLKPYECGVCAKKFMWRLSFMR [D20L] is 2.27; for HTGLKPYECGVCAKKFMWRCSFMR [D20C] it is 3.48.
The figure for HTGLKPYECGVCAKKFMWRGSFMR [D20G] is 3.52; for HTGLKPYECGVCAKKFMWRHSFMR [D20H] it is 2.65.
With HTGLKPYECGVCAKKFLWRDSFMR [M17L], the protein stability index came to 2.18.
The figure for HTGLKPYECGVCAKKFKWRDSFMR [M17K] is 1.27; for HTGLKPYECGVCAKKFQWRDSFMR [M17Q] it is 1.64.
The figure for HTGLKPYECGVCAKKFIWRDSFMR [M17I] is 2.8; for HTGLKPYECGVCAKKFFWRDSFMR [M17F] it is 3.05; for HTGLKPYECGVCAKKFYWRDSFMR [M17Y] it is 1.53.
HTGLKPYECGVCAKKFDWRDSFMR [M17D]: the protein stability index stood at 1.84.
Turning to HTGLKPYECGVCAKKFCWRDSFMR [M17C], the protein stability index came out at 2.27.
HTGLKPYECGVCAKKFPWRDSFMR [M17P]: the protein stability index came to 2.35.
The figure for HTGLKPYECGVCAKKFRWRDSFMR [M17R] is 1.39; for HTGLKPYECGVCAKKFWWRDSFMR [M17W] it is 2.45.
The figure for HTGLKPYECGVCAKKFSWRDSFMR [M17S] is 1.9; for HTGLKPYECGVCAKKFTWRDSFMR [M17T] it is 3.13; for HTGLKPYECGVCAKKFAWRDSFMR [M17A] it is 2.39.
The figure for HTGLKPYECGVCAKKFMWFDSFMR [R19F] is 1.55.
Regarding HTGLKPYECGVCAKKFMWKDSFMR [R19K], the protein stability index is 2.88.
The figure for HTGLKPYECGVCAKKFMWWDSFMR [R19W] is 1.77.
The same measure for HTGLKPYECGVCAKKFMWNDSFMR [R19N]: 2.29; for HTGLKPYECGVCAKKFMWLDSFMR [R19L]: 2.82; for HTGLKPYECGVCAKKFMWIDSFMR [R19I]: 1.71.
The figure for HTGLKPYECGVCAKKFMWDDSFMR [R19D] is 1.88.
On to HTGLKPYECGVCAKKFMWMDSFMR [R19M], for which the protein stability index came to 2.01.
The same measure for HTGLKPYECGVCAKKFMWEDSFMR [R19E]: 1.58; for HTGLKPYECGVCAKKFMWPDSFMR [R19P]: 4.1; for HTGLKPYECGVCAKKFMWTDSFMR [R19T]: 2.13.
The figure for HTGLKPYECGVCAKKFMWYDSFMR [R19Y] is 2.06; for HTGLKPYECGVCAKKFMWCDSFMR [R19C] it is 1.59; for HTGLKPYECGVCAKKFMWADSFMR [R19A] it is 2.81.
The same measure for HTGLKPYECGVCAKKFMWHDSFMR [R19H]: 2.12.
HTGLKPYECGVCAKKFMWSDSFMR [R19S]: the protein stability index is 2.12.
The same measure for HTGLKPYECGVCAKKFMWQDSFMR [R19Q]: 2.03; for HTGLKPYECQVCAKKFMWRDSFMR [G10Q]: 2.19.
On to HTGLKPYECYVCAKKFMWRDSFMR [G10Y], for which the protein stability index came out at 3.51.
The same measure for HTGLKPYECDVCAKKFMWRDSFMR [G10D]: 1.98; for HTGLKPYECVVCAKKFMWRDSFMR [G10V]: 4.2; for HTGLKPYECTVCAKKFMWRDSFMR [G10T]: 1.84.
The same measure for HTGLKPYECKVCAKKFMWRDSFMR [G10K]: 2.19; for HTGLKPYECHVCAKKFMWRDSFMR [G10H]: 1.96; for HTGLKPYECSVCAKKFMWRDSFMR [G10S]: 1.47.
The same measure for HTGLKPYECLVCAKKFMWRDSFMR [G10L]: 2.17; for HTGLKPYECPVCAKKFMWRDSFMR [G10P]: 1.92.
As for HTGLKPYECRVCAKKFMWRDSFMR [G10R], the protein stability index turned out to be 2.01.
Consider HTGLKPYECAVCAKKFMWRDSFMR [G10A], for which the protein stability index was found to be 2.82.
The same measure for HTGLKPYECFVCAKKFMWRDSFMR [G10F]: 2.12.
The same measure for HTGLKPYECNVCAKKFMWRDSFMR [G10N]: 2.62; for HTGLKPYECCVCAKKFMWRDSFMR [G10C]: 2.58; for HTGLKPYECEVCAKKFMWRDSFMR [G10E]: 2.44.
The figure for HTGLKPYECMVCAKKFMWRDSFMR [G10M] is 1.64; for HTGLKPYMCGVCAKKFMWRDSFMR [E8M] it is 2.26.
For the variant HTGLKPYDCGVCAKKFMWRDSFMR [E8D], the protein stability index amounted to 2.94.
The figure for HTGLKPYCCGVCAKKFMWRDSFMR [E8C] is 1.96.
The same measure for HTGLKPYTCGVCAKKFMWRDSFMR [E8T]: 2.61.
